Source: IntAct's records for PubMed 22582013

B1: Extracellular serine/threonine protein kinase FAM20C (Homo sapiens), Q8IXL6 (parent)
chain: MKMMLVRRFRVLILMVFLVACALHIALDLLPRLERRGARPSGEPGCSCAQPAAEVAAPGWAQVRGRPGEPPAASSAAGDAGWPNKHTLRILQDFSSDPSSNLSSHSLEKLPPAAEPAERALRGRDPGALRPHDPAHRPLLRDPGPRRSESPPGPGGDASLLARLFEHPLYRVAVPPLTEEDVLFNVNSDTRLSPKAAENPDWPHAGAEGAEFLSPGEAAVDSYPNWLKFHIGINRYELYSRHNPAIEALLHDLSSQRITSVAMKSGGTQLKLIMTFQNYGQALFKPMKQTREQETPPDFFYFSDYERHNAEIAAFHLDRILDFRRVPPVAGRMVNMTKEIRDVTRDKKLWRTFFISPANNICFYGECSYYCSTEHALCGKPDQIEGSLAAFLPDLSLAKRKTWRNPWRRSYHKRKKAEWEVDPDYCEEVKQTPPYDSSHRILDVMDMTIFDFLMGNMDRHHYETFEKFGNETFIIHLDNGRGFGKYSHDELSILVPLQQCCRIRKSTYLRLQLLAKEEYKLSLLMAESLRGDQVAPVLYQPHLEALDRRLRVVLKAVRDCVERNGLHSVVDDDLDTEHRAASAR

Variants of: B1
Settings: with ostp_human SPP1, P10451
Chain of ostp_human SPP1, P10451 (P10451 whole entry): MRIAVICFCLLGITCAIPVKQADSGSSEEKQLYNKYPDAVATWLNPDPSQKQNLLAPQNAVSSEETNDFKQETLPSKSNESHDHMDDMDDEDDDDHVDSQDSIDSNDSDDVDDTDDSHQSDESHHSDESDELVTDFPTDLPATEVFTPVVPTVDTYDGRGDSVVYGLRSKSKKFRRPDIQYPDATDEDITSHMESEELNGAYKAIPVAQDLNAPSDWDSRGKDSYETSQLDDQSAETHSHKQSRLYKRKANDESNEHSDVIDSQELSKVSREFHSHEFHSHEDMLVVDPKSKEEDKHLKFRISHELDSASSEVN

Row | Variant | effect of a mutation on the interaction
1 | MKMMLVRRFRVLILMVFLVACALHIALDLLPRLERRGARPSGEPGCSCAQPAAEVAAPGWAQVRGRPGEPPAASSAAGDAGWPNKHTLRILQDFSSDPSSNLSSHSLEKLPPAAEPAERALRGRDPGALRPHDPAHRPLLRDPGPRRSESPPGPGGDASLLARLFEHPLYRVAVPPLTEEDVLFNVNSDTRLSPKAAENPDWPHAGAEGAEFLSPGEAAVDSYPNWLKFHIGINRYELYSRHNPAIEALLHDLSSQRITSVAMKSGGTQLKLIMTFQNYGQALFKPMKQTREQETPPDFFYFSDYERHNAEIAAFHLDRILDFRRVPSVAGRMVNMTKEIRDVTRDKKLWRTFFISPANNICFYGECSYYCSTEHALCGKPDQIEGSLAAFLPDLSLAKRKTWRNPWRRSYHKRKKAEWEVDPDYCEEVKQTPPYDSSHRILDVMDMTIFDFLMGNMDRHHYETFEKFGNETFIIHLDNGRGFGKYSHDELSILVPLQQCCRIRKSTYLRLQLLAKEEYKLSLLMAESLRGDQVAPVLYQPHLEALDRRLRVVLKAVRDCVERNGLHSVVDDDLDTEHRAASAR [P328S] | with no effect
2 | MKMMLVRRFRVLILMVFLVACALHIALDLLPRLERRGARPSGEPGCSCAQPAAEVAAPGWAQVRGRPGEPPAASSAAGDAGWPNKHTLRILQDFSSDPSSNLSSHSLEKLPPAAEPAERALRGRDPGALRPHDPAHRPLLRDPGPRRSESPPGPGGDASLLARLFEHPLYRVAVPPLTEEDVLFNVNSDTRLSPKAAENPDWPHAGAEGAEFLSPGEAAVDSYPNWLKFHIGINRYELYSRHNPAIEALLHDLSSQRITSVAMKSGGTQLKLIMTFQNYGQALFKPMKQTREQETPPDFFYFSDYERHNAEIAAFHLDRILDFRRVPPVAGRMVNMTREIRDVTRDKKLWRTFFISPANNICFYGECSYYCSTEHALCGKPDQIEGSLAAFLPDLSLAKRKTWRNPWRRSYHKRKKAEWEVDPDYCEEVKQTPPYDSSHRILDVMDMTIFDFLMGNMDRHHYETFEKFGNETFIIHLDNGRGFGKYSHDELSILVPLQQCCRIRKSTYLRLQLLAKEEYKLSLLMAESLRGDQVAPVLYQPHLEALDRRLRVVLKAVRDCVERNGLHSVVDDDLDTEHRAASAR [K338R] | with no effect
3 | MKMMLVRRFRVLILMVFLVACALHIALDLLPRLERRGARPSGEPGCSCAQPAAEVAAPGWAQVRGRPGEPPAASSAAGDAGWPNKHTLRILQDFSSDPSSNLSSHSLEKLPPAAEPAERALRGRDPGALRPHDPAHRPLLRDPGPRRSESPPGPGGDASLLARLFEHPLYRVAVPPLTEEDVLFNVNSDTRLSPKAAENPDWPHAGAEGAEFLSPGEAAVDSYPNWLKFHIGINRYELYSRHNPAIEALLHDLSSQRNTSVAMKSGGTQLKLIMTFQNYRQALFKPMKQTREQETPPDFFYFSDYERHNAEIAAFHLDRILDFRRVPPVAGRMVNMTKEIRDVTRDKKLWRTFFISPANNICFYGECSYYCSTEHALCGKPDQIEGSLAAFLPDLSLAKRKTWRNPWRRSYHKRKKAEWEVDPDYCEEVKQTPPYDSSHRILDVMDMTIFDFLMGNMDRHHYETFEKFGNETFIIHLDNGRGFGKYSHDELSILVPLQQCCRIRKSTYLRLQLLAKEEYKLSLLMAESLRGDQVAPVLYQPHLEALDRRLRVVLKAVRDCVERNGLHSVVDDDLDTEHRAASAR [I258N;G280R] | with no effect

More lines, now with the values ahead:

Row | effect of a mutation on the interaction | Variant
4 | with no effect | MKMMLVRRFRVLILMVFLVACALHIALDLLPRLERRGARPSGEPGCSCAQPAAEVAAPGWAQVRGRPGEPPAASSAAGDAGWPNKHTLRILQDFSSDPSSNLSSHSLEKLPPAAEPAERALRGRDPGALRPHDPAHRPLLRDPGPRRSESPPGPGGDASLLARLFEHPLYRVAVPPLTEEDVLFNVNSDTRLSPKAAENPDWPHAGAEGAEFLSPGEAAVDSYPNWLKFHIGINRYELYSRHNPAIEALLHDLSSQRITSVAMKSGGTQLKLIMTFQNYGQALFKPMKQTREQETPPDFFYFSDYERHNAEIAAFHLDRILDFRRVPPVAGRMVNMTKEIRDVTRDKKLWRTFFISPANNICFYGECSYYCSTEHALCEKPDQIEGSLAAFLPDLSLAKRKTWRNPWRRSYHKRKKAEWEVDPDYCEEVKQTPPYDSSHRILDVMDMTIFDFLMGNMDRHHYETFEKFGNETFIIHLDNGRGFGKYSHDELSILVPLQQCCRIRKSTYLRLQLLAKEEYKLSLLMAESLRGDQVAPVLYQPHLEALDRRLRVVLKAVRDCVERNGLHSVVDDDLDTEHRAASAR [G379E]
5 | with no effect | MKMMLVRRFRVLILMVFLVACALHIALDLLPRLERRGARPSGEPGCSCAQPAAEVAAPGWAQVRGRPGEPPAASSAAGDAGWPNKHTLRILQDFSSDPSSNLSSHSLEKLPPAAEPAERALRGRDPGALRPHDPAHRPLLRDPGPRRSESPPGPGGDASLLARLFEHPLYRVAVPPLTEEDVLFNVNSDTRLSPKAAENPDWPHAGAEGAEFLSPGEAAVDSYPNWLKFHIGINRYELYSRHNPAIEALLHDLSSQRITSVAMKSGGTQLKLIMTFQNYGQALFKPMKQTREQETPPDFFYFSDYERHNAEIAAFHLDRILDFRRVPPVAGRMVNMTKEIRDVTRDKKLWRTFFISPANNICFYGECSYYCSTEHALCRKPDQIEGSLAAFLPDLSLAKRKTWRNPWRRSYHKRKKAEWEVDPDYCEEVKQTPPYDSSHRILDVMDMTIFDFLMGNMDRHHYETFEKFGNETFIIHLDNGRGFGKYSHDELSILVPLQQCCRIRKSTYLRLQLLAKEEYKLSLLMAESLRGDQVAPVLYQPHLEALDRRLRVVLKAVRDCVERNGLHSVVDDDLDTEHRAASAR [G379R]
